From the supplement of paper PMC9112550, “Optimization of the antimicrobial peptide Bac7 by deep mutational scanning” (BMC Biology, 2022)

Test system: Escherichia coli TOP10
Test: shrunken log2 fold change of peptide-encoding DNA abundance (4.5 h post-induction vs induction); higher = less antimicrobial activity (less host growth inhibition)
Conditions: time post-induction: 4.5 h; library: site-saturation at positions 5, 18, 19, 20
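Note: peptides expressed intracellularly from a pBAD plasmid library in pooled LB shake-flask culture, induced with 0.3% L-arabinose, DNA abundance read by NGS, three biological replicates, DESeq2 with apeglm shrinkage.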

Sequence	shrunken log2 fold change
RRIRDRPPRLPRPRPRPKGQPRP	0.116
RRIRDRPPRLPRPRPRPKHRPRP	0.114
RRIRDRPPRLPRPRPRPKIEPRP	-0.305
RRIRDRPPRLPRPRPRPKKEPRP	0.0609
RRIRDRPPRLPRPRPRPKKMPRP	-0.0785
RRIRDRPPRLPRPRPRPKKTPRP	-0.0142
RRIRDRPPRLPRPRPRPKLAPRP	0.271
RRIRDRPPRLPRPRPRPKLEPRP	0.434
RRIRDRPPRLPRPRPRPKLQPRP	0.08
RRIRDRPPRLPRPRPRPKLWPRP	0.527
RRIRDRPPRLPRPRPRPKMKPRP	-0.42
RRIRDRPPRLPRPRPRPKNAPRP	-0.0796
RRIRDRPPRLPRPRPRPKPYPRP	-0.12
RRIRDRPPRLPRPRPRPKQCPRP	0.101
RRIRDRPPRLPRPRPRPKQRPRP	0.314
RRIRDRPPRLPRPRPRPKRCPRP	0.0311
RRIRDRPPRLPRPRPRPKRPPRP	0.449
RRIRDRPPRLPRPRPRPKRWPRP	0.0314
RRIRDRPPRLPRPRPRPKTVPRP	0.271
RRIRDRPPRLPRPRPRPKVIPRP	-0.176
RRIRDRPPRLPRPRPRPKWPPRP	0.466
RRIRDRPPRLPRPRPRPLAKPRP	0.96
RRIRDRPPRLPRPRPRPLANPRP	0.861
RRIRDRPPRLPRPRPRPLCGPRP	0.32
RRIRDRPPRLPRPRPRPLCMPRP	0.43

Sequence	shrunken log2 fold change
RRIRDRPPRLPRPRPRPLCYPRP	0.00826
RRIRDRPPRLPRPRPRPLDGPRP	0.0131
RRIRDRPPRLPRPRPRPLEFPRP	-0.158
RRIRDRPPRLPRPRPRPLGIPRP	0.143
RRIRDRPPRLPRPRPRPLGLPRP	0.0955
RRIRDRPPRLPRPRPRPLGTPRP	0.706
RRIRDRPPRLPRPRPRPLGVPRP	0.577
RRIRDRPPRLPRPRPRPLIFPRP	0.135
RRIRDRPPRLPRPRPRPLKSPRP	0.00491
RRIRDRPPRLPRPRPRPLLHPRP	0.114
RRIRDRPPRLPRPRPRPLLVPRP	0.134
RRIRDRPPRLPRPRPRPLPQPRP	0.282
RRIRDRPPRLPRPRPRPLPRPRP	0.391
RRIRDRPPRLPRPRPRPLRLPRP	0.0919
RRIRDRPPRLPRPRPRPLSRPRP	-0.113
RRIRDRPPRLPRPRPRPLTCPRP	0.254
RRIRDRPPRLPRPRPRPLTGPRP	0.266
RRIRDRPPRLPRPRPRPLTYPRP	-0.339
RRIRDRPPRLPRPRPRPLWDPRP	-0.0822
RRIRDRPPRLPRPRPRPLWEPRP	0.0751
RRIRDRPPRLPRPRPRPLWMPRP	0.0442
RRIRDRPPRLPRPRPRPLWTPRP	0.163
RRIRDRPPRLPRPRPRPLWYPRP	-0.421
RRIRDRPPRLPRPRPRPMDSPRP	-0.0175
RRIRDRPPRLPRPRPRPMEFPRP	-0.0018

Sequence	shrunken log2 fold change
RRIRDRPPRLPRPRPRPMFYPRP	-0.305
RRIRDRPPRLPRPRPRPMICPRP	-0.0307
RRIRDRPPRLPRPRPRPMIRPRP	-0.0188
RRIRDRPPRLPRPRPRPMITPRP	-0.115
RRIRDRPPRLPRPRPRPMKHPRP	-0.245
RRIRDRPPRLPRPRPRPMKLPRP	-0.0161
RRIRDRPPRLPRPRPRPMLGPRP	0.015
RRIRDRPPRLPRPRPRPMLQPRP	0.0454
RRIRDRPPRLPRPRPRPMLRPRP	0.0179
RRIRDRPPRLPRPRPRPMLVPRP	0.116
RRIRDRPPRLPRPRPRPMPHPRP	-0.0342
RRIRDRPPRLPRPRPRPMPQPRP	0.0354
RRIRDRPPRLPRPRPRPMRCPRP	0.147
RRIRDRPPRLPRPRPRPMRMPRP	0.199
RRIRDRPPRLPRPRPRPMRWPRP	0.274
RRIRDRPPRLPRPRPRPMSTPRP	0.0569
RRIRDRPPRLPRPRPRPMVDPRP	-0.0109
RRIRDRPPRLPRPRPRPMVIPRP	0.0392
RRIRDRPPRLPRPRPRPMVSPRP	-0.00166
RRIRDRPPRLPRPRPRPMVTPRP	0.769
RRIRDRPPRLPRPRPRPMVWPRP	0.851
RRIRDRPPRLPRPRPRPMYEPRP	0.183
RRIRDRPPRLPRPRPRPMYVPRP	-0.243
RRIRDRPPRLPRPRPRPNCQPRP	0.156
RRIRDRPPRLPRPRPRPNDAPRP	0.0621
